US11466255B2, “Methods and compositions for converting non-endocrine pancreatic tissue into insulin-producing cells” (UNIVERSITY OF MIAMI, priority 2015, dated 2022)

How the values were obtained:
[1] = test system: SMAD1/5/8 phosphorylation; assay: SMAD1/5/8 phosphorylation by immunofluorescence in hNEPT; type: cell-based, human; details: 2 h after the addition of BMP-7 to hNEPT
Excerpt: In order to study the mechanism behind the effects of BMP-7 on hNEPT preparations, the potential receptors engaged by BMP-7 were studied. BMP-7 binds with high affinity to heteromeric complexes formed by BMPR2 (Bone Morphogenetic Receptor Type II) and the activin-like kinase (ALK) ALK3, ALK6 or ALK2 type I serine/threonine kinase receptors^25. […] These findings are consistent with numerous reports that identify ALK3 as the receptor that mediates BMP-7 function in several biological models of regeneration, including adult liver regrowth^23, differentiation of epidermal Langerhans cells^24 and kidney regeneration and fibrosis reversa1^22. The activation of the canonical BMP signaling pathway entails the phosphorylation of SMAD1/5/8 upon ALK3 engagement.
IF analysis and confocal microscopy: The present study was conducted on human pancreatic samples from cadaveric organ donors. In addition to our own cGMP facility, the Network for Pancreatic Organ Donors with Diabetes (nPOD, www.jdrfnpod.org)55 also provided tissue sections. For IF staining, 5 μm-thick frozen sections or cultured cells were fixed with 4% paraformaldehyde (PFA) for 20 min at room temperature, rinsed with HBSS, washed (3 x 5 min each) with lx Supersensitive Wash Buffer (Biogenex HK583-5K) and then incubated in permeabilization buffer PBSTr [0.2% Triton X-100 (Sigma-Aldrich) in PBS] for 30 min at room temperature. […]

hNEPT = hNEPT culture exposed to BMP-7: cluster/colony formation and DNA content; type: cell-based, human
Experimental: Fresh hNEPT preparations were allowed to attach to tissue culture-treated plates for 48 h and subsequently exposed to BMP-7. The rationale behind the use of BMP-7 was that it may help reduce the incidence of EMT in cultured pancreatic exocrine tissue, as EMT has proven an obstacle for the formation of endocrine cells from exocrine cells in a similar setting^7. Control aliquots were cultured in the same conditions but without BMP-7. […] The growth of the colonies in the BMP-7 group was followed by in situ live cell imaging (Incucyte Zoom) (FIG. 1b and FIG. 8). This increase in size was paralleled by an average increase of 4.8-fold in DNA content from the time of attachment to day 12 (n=2), which further evidenced active cell proliferation.
hNEPT culture: Human islets were isolated at the DRI's cGMP facility following methods already described54, and hNEPT samples (2-4 ml) were obtained as an isolation byproduct. […]
Real-time colony growth assessment: In order to observe the formation and growth of the colonies we used an IncuCyteZOOM EssenBiosciences instrument (Ann Arbor, Michigan) within a Symphony Incubator purchased from VWR (Atlanta Ga.). The cells remain in their own culturing flask or plate, where growth can be observed and quantified over time. […]

B1: BMP-7: 35 kDa homodimeric protein of the TGF-β superfamily; FDA-approved agent; human mature chain SEQ ID NO:1/2 (protein, listed as Homo sapiens)
chain: IRSTGSKQRSQNRSKTPKNQEALRMANVAENSSSDQRQACKKHELYVSFRDLGWQDWIIAPEGYAAYYCEGECAFPLNSYMNATNHAIVQTLVHFINPETVPKPCCAPTQLNAISVLYFDDSSNVILKKYRNMVVRACGCH
modifications: homodimer; human mature chain of BMP-7 (NCBI Reference Sequence NM_001719.2) comprising peptide from 293-431
Question: For B1, which “SMAD1/5/8 phosphorylation in ALK3-expressing cells” value [1] is on record?
Answer: presented SMAD1/5/8 phosphorylation

Question: And the “formation of cellular clusters” value (hNEPT; 100 ng/ml BMP-7, course of 12 days, controls became mesenchymal-like monolayers)?
Answer: induced the formation of abundant cellular clusters

Question: And the “average increase in DNA content from the time of attachment to day 12” value (hNEPT; BMP-7 group, n=2)?
Answer: 4.8 fold
